{
  "source": "patent US20040172686A1",
  "target": "yeast APC (anaphase promoting complex of Schizosaccharomyces pombe)",
  "test": "cell-based or functional assay",
  "data": [
    {"substance": "HOBBIT (HBT) protein of Arabidopsis thaliana (from UniProt Q8LGU6 1-744)", "values": [
      {"measurement": "growth (optical density) of S. pombe nuc2ts at restrictive temperature, HBT cDNA against empty vector control", "value": 4, "unit": "fold"}
    ]}
  ]
}
